In the supplement of paper PMC10567573 one finds protein stability index data, which are given here for seven sequences.

This data set can be described thus: protein stability index of a GFP-peptide fusion (GPS, HEK-293T) (PSI 1-6); higher = more stable. Conditions: c terminus: a fixed tail appended.

± gives the standard deviation.
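Also: 24-mer peptide tiles fused after GFP, lentivirally expressed, FACS-sorted into six equal bins by GFP/DsRed ratio, decoded by Illumina sequencing, PSI is the read-weighted mean bin number.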

For the sequence YTCHECGDSFSHSSNRIRHLRTHT [ZNF263], the protein stability index reads like this: (treatment: DMSO) 3.04 ± 0.18; (treatment: MLN4924 1 uM, 8 h) 3.32 ± 0.33.

For the sequence YTFIIVPKMLVDLLSQKKTISFLG [OR10K2], the protein stability index was 3.09 ± 0.14 (treatment: DMSO) and 2.7 ± 0.28 (treatment: MLN4924 1 uM, 8 h).

As for YTMLLGRPPFETTNLKETYRCIRE [PLK2], the protein stability index by setting is: (treatment: DMSO) 2.32 ± 0.3; (treatment: MLN4924 1 uM, 8 h) 2.4 ± 0.22.

Turning to YTYEKLLWTTSRVLKVLSVCSSNK [CTNNB1], the protein stability index runs as follows: (treatment: DMSO) 2.47 ± 0.36; (treatment: MLN4924 1 uM, 8 h) 2.22 ± 0.43.

In turn, YVKAKKSIDKDEEFAGSSPQSSKS [FAN1] returned a protein stability index (treatment: DMSO) of 3.57 ± 0.67 and a protein stability index (treatment: MLN4924 1 uM, 8 h) of 4.16 ± 0.65.

In the case of YVKVFEHFLENLDKSRKGELLKKS [PRIM1], the protein stability index runs as follows: (treatment: DMSO) 1.96 ± 0.31; (treatment: MLN4924 1 uM, 8 h) 2.09 ± 0.48.

YYSPILDQWTPIAAMLRGQSDVGV [KLHL13]: the protein stability index was 2.4 ± 0.3 (treatment: DMSO) and 2.26 ± 0.3 (treatment: MLN4924 1 uM, 8 h).
